In patent US20180118816A1 (IGM BIOSCIENCES, published 2018):

Columns and labels:
[1] = target: T1, HIV gp120 antigen (strain HXB2, Immune Tech, cat #IT-001-0022p-PBS) (HIV, strain HXB2, UniProt P04578 33-511); experiment: ELISA, gp120 coated at 1 µg/mL, anti-human kappa-HRP detection; value given to the IgG by the sense of the sentence, not by its word order
T1 construct: domain: gp120; Bought protein coated on ELISA plates; also called gp120 HBX2

[2] = target: T1, HIV gp120 antigen (strain HXB2, Immune …); experiment: ELISA, gp120 coated at 1 µg/mL
[3] = target: T1, HIV gp120 antigen (strain HXB2, Immune …); experiment: ELISA, interpolated EC10 values; gp120 coated at 0.1 µg/mL
[4] = target: T1, HIV gp120 antigen (strain HXB2, Immune …); experiment: ELISA, interpolated EC10 values; gp120 coating 0.1 µg/mL end of the series
[5] = target: T1, HIV gp120 antigen (strain HXB2, Immune …); experiment: ELISA, interpolated EC10 values; gp120 coating 1.0 µg/mL end of the series
[6] = target: T1, HIV gp120 antigen (strain HXB2, Immune …); experiment: ELISA, gp120 coated at 1 µg/mL, anti-human kappa-HRP detection; value given to the IgM+J by the sense of the sentence, not by its word order

B1: HIV02 IgG (HIV02G) (antibody, V domains shown)
VH: QVQLVQSGGQMKKPGESMRISCQASGYEFIDCTLNWVRLAPGRRPEWMGWLKPRGGAVNYARPLQGRVTMTRDVYSDTAFLELRSLTADDTAVYYCTRGKNCDYNWDFEHWGRGTPVTVSS
VL: EIVLTQSPGTLSLSPGETAIISCRTSQYGSLAWYQQRPGQAPRLVIYSGSTRAAGIPDRFSGSRWGPDYNLTIRNLESGDFGLYYCQQYEFFGQGTKVQVDI
notes: also called the IgG
Question: B1 was tested. Which EC50 [1] did it give?
Answer: 2.3 µg/mL

B2: HIV02 IgM+J (HIV02M+J) (antibody)
heavy: QVQLVQSGGQMKKPGESMRISCQASGYEFIDCTLNWVRLAPGRRPEWMGWLKPRGGAVNYARPLQGRVTMTRDVYSDTAFLELRSLTADDTAVYYCTRGKNCDYNWDFEHWGRGTPVTVSSGSASAPTLFPLVSCENSPSDTSSVAVGCLAQDFLPDSITFSWKYKNNSDISSTRGFPSVLRGGKYAATSQVLLPSKDVMQGTDEHVVCKVQHPNGNKEKNVPLPVIAELPPKVSVFVPPRDGFFGNPRKSKLICQATGFSPRQIQVSWLREGKQVGSGVTTDQVQAEAKESGPTTYKVTSTLTIKESDWLSQSMFTCRVDHRGLTFQQNASSMCVPDQDTAIRVFAIPPSFASIFLTKSTKLTCLVTDLTTYDSVTISWTRQNGEAVKTHTNISESHPNATFSAVGEASICEDDWNSGERFTCTVTHTDLPSPLKQTISRPKGVALHRPDVYLLPPAREQLNLRESATITCLVTGFSPADVFVQWMQRGQPLSPEKYVTSAPMPEPQAPGRYFAHSILTVSEEEWNTGETYTCVVAHEALPNRVTERTVDKSTGKPTLYNVSLVMSDTAGTCY
light: EIVLTQSPGTLSLSPGETAIISCRTSQYGSLAWYQQRPGQAPRLVIYSGSTRAAGIPDRFSGSRWGPDYNLTIRNLESGDFGLYYCQQYEFFGQGTKVQVDIKRTVAAPSVFIFPPSDEQLKSGTASVVCLLNNFYPREAKVQWKVDNALQSGNSQESVTEQDSKDSTYSLSSTLTLSKADYEKHKVYACEVTHQGLSSPVTKSFNRGEC
chain: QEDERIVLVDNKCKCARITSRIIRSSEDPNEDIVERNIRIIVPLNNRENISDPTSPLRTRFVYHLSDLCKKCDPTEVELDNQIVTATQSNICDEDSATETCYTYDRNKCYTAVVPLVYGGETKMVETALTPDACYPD
notes: also called the IgM+J
Question: How did the “fold better binding than HIV02G, on a molar basis” value [2] turn out when B2 was run?
Answer: 42 fold

Question: What about the “fold difference in EC50 against HIV02G, by weight” value [2] of the same binder?
Answer: 7 fold

Question: And the “fold better binding than the IgG (HIV02G), on a molar basis” value [3]?
Answer: 120 fold

Question: What about the “fold binding relative to the IgG (HIV02G), on a weight basis (from EC10)” value [4] of the same binder?
Answer: 20 fold

Question: And the “fold binding relative to the IgG (HIV02G), on a weight basis (from EC10)” value [5]?
Answer: 5 fold

Question: What about the EC50 [6] of the same binder?
Answer: 0.32 µg/mL
